Blank lines part the entries; values can stand above or below the binder they belong to.
Experiments:
AtBAG5/holo-CaM = AtBAG5/holo-CaM (Arabidopsis thaliana (AtBAG5); Homo …); test: ITC; with Ca2+; AtBAG5 pre-bound to holo-CaM
[1] = target: AtBAG5-IQR (AtBAG5-long with Ile57, Gln58 and Arg62 substituted with alanine) (Arabidopsis thaliana, UniProt O65373 49-153, Ile57 to alanine | Gln58 to alanine | Arg62 to alanine); test: ITC
AtBAG5-CaM (with Ca2+) = test: ITC; with Ca2+ (AtBAG5/holo-CaM complex)

Kd (AtBAG5/holo-CaM): 53.3 µM
B1: ATPase domain of human Hsp70 (called Hsc70 in the results) (domain or fragment)
chain: not shown
modifications: CaM Ca2+-saturated (holo, 4 Ca2+; 10 mM CaCl2). AtBAG5-long limits are printed. CaM is full length with the initiator Met removed by convention. CaM species is not printed: Met144 in mature numbering fits vertebrate CaM rather than plant CaM (Val144).

Kd [1]: 0.48 µM
Kd (AtBAG5-CaM (with Ca2+)): 53.3 µM
B2: ATPase domain of human Hsp70 (called Hsc70 in the results) (domain or fragment)
chain: not shown

Reference: PMC4990970 (2016)
